This data set in a line: yeast display, Sf9 membrane polyspecificity reagent, FACS + sequencing; frameworks hold sequencing errors. The essentials:
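Sorting gates, low and high (top ~1%), were placed on anti-HA fluorescence to track expression and on streptavidin fluorescence to track reagent binding. A clone's polyreactivity label is taken from the gate it came out of. The reagent was 10% biotinylated, detergent-solubilized Sf9 membrane, applied for 1 hour at 4 °C to galactose-induced yeast display cells.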
For the sequence “QDQLVESGGGLVQAGGRLRLSCAASGRIIRTYARGWDRQAPGKERELVAAITNGDSTNYADSVMGRFTMSRDNAKNTVYLQMNSLKPEDTAVYYCAVGAVVPGRRRRTYYYWGQGTQVTVSS”, the “polyreactivity (PSR sort gate)” value is listed as “high polyreactivity”.

In the case of “QVQLVESGGGLVQAGGSLRLSCAASGFIFRYYAMGWYRQAPGKERELVAAISRGGSTNYADSVKGRFTISRDNAKNTVYLQMNSLKPEDTAVYYCAARTVRARSKFEYWGQGTQVTVSS”, the “polyreactivity (PSR sort gate)” value is recorded as “high polyreactivity”.

For the sequence “QLQLVESGGGLVQAGGSLRLSCAASGRTLSRYAMGWYRQAPGNERELVAVISSRGGSTYYADSVKGRFTISRDNAKNTVYLRMNSLKPEDTAVFYCAAVRNRHGYDYWGQGTQVTVSS”, the “polyreactivity (PSR sort gate)” value is given as “high polyreactivity”.

For “QVQVVESGGGLVQEVGSLRLSCDASGRSFHHNVMGWYRQAPGKERELVAAISQSGCSTYYADSVKGRFTISRDNAKNTLYLLINSLKPEDSAVYYCNAGAAGRRYNYWGQGTQVTVSS”, the “polyreactivity (PSR sort gate)” value was “low polyreactivity”.

With “QVQLVESGGGLVQAGGSLRLSSAASGLTFYVYAMGWYRQGPGKEREWVARITWSGGSTYYADSVKGRFTISRDHAKNTVYLQMNSLKPEDTAVYYCAAEWSEESDYWGQGTQVTVSS”, the “polyreactivity (PSR sort gate)” value is listed as “low polyreactivity”.

Take “QVQLVESGGGLVQAGGSLRLSCAASGRTFYYYYTMGWYRQPPGKETELVAAISRSGSTNYADSVKGRFTISRDNAKNTVYLQMNSLKPEDTAVYYCARSYRSDGSRFGYWGQGTQVTVSS”: the “polyreactivity (PSR sort gate)” value was “low polyreactivity”.

As for “QVQLVESGGGLVQAGGSLRLSCAASGRIIGNNAMGWYRHAPGKERELVATISSRGGSTYYAESVKGRFTISRDNAKNTVYFQMNSLKPEDTAVYYCKAYTTLAYDLDYWGQGTQVTVSS”, the “polyreactivity (PSR sort gate)” value is recorded as “high polyreactivity”.

For the sequence “QVQLVESGGGLVQAGGSLRLSCAASGSTFTIYAYGWYRQAPGKERELVAAITRGGGRTYYADSVKGRFTISRDNAKNTVFLQMNSLKPEVTAVYYCAAYYAHEFDYRGQGTQVTVSS”, the “polyreactivity (PSR sort gate)” value is on record as “high polyreactivity”.

On to “QVQLVESGGGLVQAGGSLRLSCAASGNTLYQYAMGWYRQAPGKERELVAAISGIGDSTYYADSVKGRFTISRDNAKNTVYLQMNSLKPEDTAVYYCAADGEYRYDLEYESWGQGTQVTVSS”, for which the “polyreactivity (PSR sort gate)” value was “low polyreactivity”.

Turning to “QVQLVESGGGLVQAGGSLRLSCAASGRTFYDYDMGWYRQAPGKERELVATIRRDGSTYYADSVKGRFTISRDNAKNTVYLQMNSLKPEDTAVYYCAKDGGYPLDEPEFDYWGQGTQVTVSS”, the “polyreactivity (PSR sort gate)” value is given as “low polyreactivity”.

Regarding “QVQLVESGGGLVQAGGSLRLSCAASGITFYRNAMGWYRKAPGKERELLAAISWSGGRTYYADSVKGRFTISRDNAKNTVYLQMNSLKPEDTAVYYCAASSWSSYYRPKYYWGQGTQVTVSS”, the “polyreactivity (PSR sort gate)” value was “high polyreactivity”.

Regarding “QVQLVESGGGLVQAGGSLRLSCAASGSTFSGNARGWDRQAPGKERELVAAISRRGGSTNYADSVKGRFTISRDNAKYTVYLKMNSLKPEDTAVYYCNKGDYRSAYRHIEYGYWGQGTQVTVSS”, the “polyreactivity (PSR sort gate)” value was “low polyreactivity”.

Consider “QVQLVESGGGLVQAGGSLRLSCAASGFTFQHNSMGWYRQAPGKERELVAAISLGGSTNYADSVKGRFTISRDNAKNSVYLQMNSLKPEDSAVYYCAAYDWRVLWGYDYWGQGTQVTVSS”, for which the “polyreactivity (PSR sort gate)” value is “low polyreactivity”.

Regarding “QVQLVESGGGLVQAGGSLRLSCAASGFIFHNYAMGWSRQAPGKERELVAAISWSGSRTYYADSVKGRFTISRDNAKNTVYLQMNSLKPEDTAVYYCNAPGSPVVQQPGYYWGQGTQVTVSS”, the “polyreactivity (PSR sort gate)” value is on record as “low polyreactivity”.

Turning to “QVQLVESVGGLVQAGGTLRLSCAASGSTFNINAMGWYRQAPGKERELVAAISWSGDITYYADSVKGRFTISRDNAKNTVYLQMNSLKPEDTAVYYCNTDDPVNYWYAEYDYWGQGTQVTVSS”, the “polyreactivity (PSR sort gate)” value is on record as “low polyreactivity”.

Consider “QVQLVESGGGLVQAGGSLRLSCAASGSTFRYNAMGWYRQAPGKERELVATITGSGGSTYYADSVKGRFTISRDNAKNTVYLQMNSLKPEDTAVYYCTARYVYGAYSSLSAHYYWGQGTQVTVSS”, for which the “polyreactivity (PSR sort gate)” value is given as “high polyreactivity”.

With “QVQLVESGGGLVQAGGTLGLSCAASGFIITQYAMGRYRQAPGKERELVAAISGNGGRTYYADSVKGRFTISRDNAKNTVYLQLNSLKPEDTAVYYCAVTRPGRRYPFGYDYWGQGTQVTVSS”, the “polyreactivity (PSR sort gate)” value is “high polyreactivity”.

With “QVQLVESGGGLVQAGGSLRLSCAASGRIFVKYVMGWYRQAPGKERELVAAITYTGGTYYADSVKGRFTISRDTAKNTVYLQMNSLKPEETAVYYCAADYQGSYYSGSYQTWTEYYYWGQGTQVTVSS”, the “polyreactivity (PSR sort gate)” value is on record as “high polyreactivity”.

Consider “QVQLVESGGGLVQAGGSLRLSCAASGRTFYYYAMGWNRQAPGTERELVAAITTDGGNTYYADSVKGRFTISRDTAKNTVYLQMNSLKPEDTAVYYCATDGYEYTDYGSSGYDYWGQGTQVTVSS”, for which the “polyreactivity (PSR sort gate)” value is reported as “low polyreactivity”.

As to “QVQLQESGSGLVQAGGSLRLSCAASGNISQYNDIGWYRQAPGKEREPVATINSGSITYYADSVKGRLTISRDNAKNTVYLEMNSLKPEDTAVYYGAVKQHGFVYLEYWGQGTQVTVSR”, the “polyreactivity (PSR sort gate)” value is given as “high polyreactivity”.

For the sequence “QVQLVESGGGLVQAGGSLRLSCAASGRIFGGYAMGWYRQAPGKERELVAAIRWSGGSTYADSVKGRFTISRDNAKYTVYLQMNSLKPEDTAVYYCNTVRSPPGHDYWGQGTQVTVSS”, the “polyreactivity (PSR sort gate)” value was “low polyreactivity”.

For “QVQLVESGGGLVQAGGSLRLSCAASGSIFFINAMGWYRQAPGKERELVAAIRRGGSTYADSVKGRFTISRDNAKNTVYLQMNSLKPEDTAVYYCAARITWGATAKSRYSYLYDYWGQGTQVTVSS”, the “polyreactivity (PSR sort gate)” value is given as “high polyreactivity”.

Regarding “QVQLVESGGGLVQAGGSLRLSCAASGSIFHTYTMGWYRQAPGKERELVAAITRSGGTTYYADSVKGRFTISRDNAKNTVYLQMNSLKPEDTAVYYCAATHPGAVSFRYYYWGQGTQVTVSS”, the “polyreactivity (PSR sort gate)” value is “high polyreactivity”.

In the case of “QVQLEESGGGLVQAGGSLRLSCAAYGIIFRTYDMGWYRQAPGKEREFVAAINSDCSTYYADSVKGRFTFSRDNAKNSVYLQMISVKTEDTAVYYCASDHYYAGAWYYFWGQGTQVTVSS”, the “polyreactivity (PSR sort gate)” value is “high polyreactivity”.

As for “QVQLVESGGGLVQAGGSLRLSCAASGMTFDYYAMGWYRQAPGKERELVAAIRSGGSTNYADSVKGRFTISRDNAKNTVYLQMNSLKPEDTAVYYCAAVRYFPWYDYWGQGTQVTVSS”, the “polyreactivity (PSR sort gate)” value is reported as “high polyreactivity”.

For the sequence “QVQLVESGGGLVQAGGSLRLSCAASGRTFLQYAMGWYRQAPRQERDLFATISFSGGSTYYADSVKGRITISRDNAKNTVYLLMNSLKPEDTAVYDCAKSQYRGRVYTGYDYWGQGTQVTVSA”, the “polyreactivity (PSR sort gate)” value is recorded as “low polyreactivity”.

On to “KVQLVESGGGLVQAGGSIRLSCDASGRSFYYYAMGWYRQAPGKEREWVAAINTRGTSTYYADSVKGRFTISRDNAKNTVYLQMNSLKPEDTAVYYCAVDPYGDSWEDWFRNYYYGYDYWGQGTQGTVSS”, for which the “polyreactivity (PSR sort gate)” value is on record as “low polyreactivity”.

Consider “QVQLVESGGGLVQAGGSLRLSCAASGFTIGYKVMGWYRQAPGKERELVATISWNGARTYYADSVKGRFTISRDNAKNTVYLQMNSLKPEDTAVYYCAARRYYRGEYDYWGQGTQVTVSS”, for which the “polyreactivity (PSR sort gate)” value is given as “low polyreactivity”.

On to “QVQLVESGGGLVQAGGSLRLSCAASGRIFRGNVMGWYIQAPGKERELVATITSSARTYYADSVKGRFTISRDNAMITVYLQMNSLKPEDTAVYYCAAKTRWNFYYWGQGTQVSVSS”, for which the “polyreactivity (PSR sort gate)” value is reported as “high polyreactivity”.

Turning to “QVQLVESGGGLVQAGGSLRLSCAASGGTFNRYAMGWYRQAPGKERELVAAISNGGGRTYYADSVKGRFTISRDNAKNTVYLQMNSLKPEDTAVYYCAKDLTRTSYRSAFDYWGQGTQVTVSS”, the “polyreactivity (PSR sort gate)” value is on record as “high polyreactivity”.
